According to publication PMC10272835, “Exploration of T cell immune responses by expression of a dominant-negative SHP1 and SHP2” (Frontiers in Immunology, 2023):

System: SupT1-GD2 cells
Experiment: Effect of inhibitory ligand expression on GD2 CAR cytotoxicity
Assay type: cell-based
Settings: ligand expressed on SupT1-GD2, E:T 1:4 and 1:8, 6 days
Protocol: Transduced T cells were depleted of CD56 cells using the EasySep Human CD56 positive selection kit (Stemcell Technologies; 17855) and rested for 24 hours. Transduced cells were co-cultured with target cells at the indicated effector: target (E:T) ratios with target cells remaining constant at the indicated number of target cells/co-culture. At the end of the co-culture period target cells were enumerated by flow cytometry and cytotoxicity calculated as a percentage of the number of target cells recovered from co-cultures with non-transduced (NT) T cells.
Figure 3 Interaction of dSHP2 with immunoinhibitory T cell receptors. (A-E) Binding of dSHP2 to phosphorylated peptides derived from the endodomains of immunoinhibitory T cell receptors. Plates were coated with phosphorylated or non-phosphorylated peptide at the indicated concentration and the purified, His-tagged SH2 domains of dSHP2 were allowed to bind overnight. Binding was measured through detection of the His tag. (F) Effect of inhibitory ligand expression on target cells on CAR T cytotoxicity. […] Supernatants were harvested from these co-cultures and levels of IFNγ measured by ELISA (I). […] Statistical significance was measured by two-way ANOVA. […]

B1: CD155: inhibitory ligand of TIGIT expressed on SupT1-GD2 cells (protein, UniProt P15151 21-417, looked up)
Poliovirus receptor: WPPPGTGDVVVQAPTQVPGFLGDSVTLPCYLQVPNMEVTHVSQLTWARHGESGSMAVFHQTQGPSYSESKRLEFVAARLGAELRNASLRMFGLRVEDEGNYTCLFVTFPQGSRSVDIWLRVLAKPQNTAEVQKVQLTGEPVPMARCVSTGGRPPAQITWHSDLGGMPNTSQVPGFLSGTVTVTSLWILVPSSQVDGKNVTCKVEHESFEKPQLLTVNLTVYYPPEVSISGYDNNWYLGQNEATLTCDARSNPEPTGYNWSTTMGPLPPFAVAQGAQLLIRPVDKPINTTLICNVTNALGARQAELTVQVKEGPPSEHSGISRNAIIFLVLGILVFLILLGIGIYFYWSKCSREVLWHCHLCPSSTEHASASANGHVSYSAVSRENSSSQDPQTEGTR
effect of target cell ligand expression on CAR T cytotoxicity: mild enhancement of CAR T cytotoxicity

B2: HVEM: inhibitory ligand of BTLA expressed on SupT1-GD2 cells (protein, UniProt Q92956 39-283, looked up)
Tumor necrosis factor …: LPSCKEDEYPVGSECCPKCSPGYRVKEACGELTGTVCEPCPPGTYIAHLNGLSKCLQCQMCDPAMGLRASRNCSRTENAVCGCSPGHFCIVQDGDHCAACRAYATSSPGQRVQKGGTESQDTLCQNCPPGTFSPNGTLEECQHQTKCSWLVTKAGAGTSSSHWVWWFLSGSLVIVIVCSTVGLIICVKRRKPRGDVVKVIVSVQRKRQEAEGEATVIEALQAPPDVTTVAVEETIPSFTGRSPNH
effect of target cell ligand expression on CAR T cytotoxicity: mild enhancement of CAR T cytotoxicity
